Measurements reported in patent US20220064218A1 (Bicycle, published 2022).
*1 amine or outer side, *2 acyl side, *3 side chain or, on linkers, in order; H or OH if unused. Bridges are numbered along the chain shown (N, C = ends). Where no end group is shown, it is not given here. TATA = O=C(CC[*:1])N1CN(C(=O)CC[*:2])CN(C(=O)CC[*:3])C1

Biological target: T1, human CD38 (human, UniProt P28907 43-300, limits assumed)
T1 construct: also called hCD38
T1 sequence (looked up): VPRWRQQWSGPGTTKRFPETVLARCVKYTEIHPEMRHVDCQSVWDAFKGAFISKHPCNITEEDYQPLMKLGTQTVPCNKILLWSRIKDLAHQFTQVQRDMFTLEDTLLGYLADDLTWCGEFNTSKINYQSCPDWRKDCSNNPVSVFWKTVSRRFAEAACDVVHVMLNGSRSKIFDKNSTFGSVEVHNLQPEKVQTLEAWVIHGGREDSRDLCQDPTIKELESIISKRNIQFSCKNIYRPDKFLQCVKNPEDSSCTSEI
Assay: fluorescence polarisation competition with the labelled tracer peptide

B1: 66-50-19-T02-N001 (peptide)
peptide: ACYWNPFTACYSCTEN
modifications: linker 2-10-13 via TATA (inferred)
notes: Synthetic bicyclic peptide cyclised with TATA; also called 66-50-19-T002-N001
  Ki: 316 nM

B2: 66-50-16-T01-N001 (peptide)
peptide: ACYWNPFTACWSCEND
modifications: linker 2-10-13 via TATA (inferred)
notes: Synthetic bicyclic peptide cyclised with TATA
  Ki: 90 nM
